# Data taken from US20100285131A1.
# Biological target: β-Klotho overexpressed in recombinant human 293T kidney cells
# Assay: cell-based or functional assay
Substance,"EC50 (nM), ELK-luciferase [nM]","Efficacy, ELK-luciferase [%]"
"hFc-(L15)-hFGF21(L98R, P171G, A180P) (Fc fusion)",617,77.1
"hFc-(L15)-hFGF21(L98R, P171G, GGGGG182-6) (Fc fusion)",4310,99.7
"hFc-(L15)-hFGF21(L98R, P171G, S181G) (Fc fusion)",3.43,77.3
"hFc-(L15)-hFGF21(L98R, P171G, S181K) (Fc fusion)",130,87.9
"hFc-(L15)-hFGF21(L98R, P171G, S181P, P182) (Fc fusion)",272,69.9
"hFc-(L15)-hFGF21(L98R, P171G, Y179G) (Fc fusion)",61,82.6
"hFc-(L15)-hFGF21(L98R, P171G, Y179P) (Fc fusion)",428,44.4

# The next lines start with the values.
"EC50 (nM), ELK-luciferase [nM]","Efficacy, ELK-luciferase [%]",Substance
834,83.1,MKEDD-hFGF21-(L15)-hFc (Fc fusion)
167,63.9,"hFc-(L15)-hFGF21(1-178, L98R, P171G) (Fc fusion)"
7.8,77.4,"hFc-(L15)-hFGF21(L98R, P171G, 1-179) (Fc fusion)"
2.66,73.5,"hFc-(L15)-hFGF21(L98R, P171G, S181A) (Fc fusion)"
3.46,72.6,"hFc-(L15)-hFGF21(L98R, P171G, S181L) (Fc fusion)"
33.8,79.5,"hFc-(L15)-hFGF21(L98R, P171G, S181P) (Fc fusion)"
3.07,77.6,"hFc-(L15)-hFGF21(L98R, P171G, S181T) (Fc fusion)"
